Test results taken from publication PMC6757032 (Nature Communications, 2019).
One block for each binder: values may come before it.

Columns and labels:
[1] = target: T1, full-length rat syntaxin-1A (reconstituted in liposomes, S-liposomes) (rat, UniProt P32851 1-288); test: SEC; S-liposomes (2.29 mM lipid) with full-length syntaxin-1A incubated 1 h with 1.2 µM αSNAP or 1.2 µM Munc18-1, then mixed with 1.2 µM of the other (at once or 12 h at 4 °C); 25 mM HEPES pH 7.4, 150 mM KCl, 1 mM TCEP; liposomes and bound proteins elute near the void volume; conditions: both partners purified
T1 construct: syntaxin-1A, rat, full length; For the NMR experiments the protein was 2H-I-13CH3-labelled (isoleucine delta1 methyl groups); also called Syx WT; liposome-anchored syntaxin-1; source: E. coli BL21(DE3), purified (Ni-NTA, thrombin, Superdex 200 in DPC), reconstituted in liposomes

[2] = target: T1, full-length rat syntaxin-1A …; test: liposome co-floatation; S-liposomes (0.75 mM lipid) with full-length syntaxin-1A pre-incubated 1 h at room temperature with 3 µM αSNAP (C-terminal His6-linker) or 3 µM Munc18-1, then 0-15 µM of the other protein (with or without 2.4 µM NSF) or 3 µM Munc18-1 at 4 °C for various times; Histodenz gradient, top layer by SDS-PAGE and Coomassie blue; conditions: both partners purified

T1 sequence (P32851 whole entry): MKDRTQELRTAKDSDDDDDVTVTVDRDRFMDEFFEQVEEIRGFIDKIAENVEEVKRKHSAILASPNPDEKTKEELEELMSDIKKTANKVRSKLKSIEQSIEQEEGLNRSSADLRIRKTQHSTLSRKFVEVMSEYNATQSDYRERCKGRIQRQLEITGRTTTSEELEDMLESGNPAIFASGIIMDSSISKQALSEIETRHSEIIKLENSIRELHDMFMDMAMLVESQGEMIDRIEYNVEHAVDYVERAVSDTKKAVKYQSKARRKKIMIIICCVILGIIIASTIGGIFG

binding result [1]: binds
B1: full-length Bos Taurus αSNAP (natural protein, UniProt P81125 1-295, looked up)
chain: MDNSGKEAEAMALLAEAERKVKNSQSFFSGLFGGSSKIEEACEIYARAANMFKMAKNWSAAGSAFCQAAHVHLQLQSKHDAATCFVDAGNAFKKADPQEAINCLMRAIEIYTDMGRFTIAAKHHISIAEIYETELVDIEKAIAHYEQSADYYKGEESNSSANKCLLKVAGYAAQLEQYQKAIDIYEQVGTNAMDSPLLKYSAKDYFFKAALCHFCIDMLNAKLAVQKYEELFPAFSDSRECKRIKKLLEAHEEQNVDSYTEAVKEYDSISRLDQWLTTMLLRIKKTIQGDEEDLR
notes: alpha-SNAP, Bos taurus, full length; also called WT αSNAP; source: E. coli BL21(DE3), purified (Glutathione Sepharose, thrombin, Superdex 75)

binding result [2]: binds
B2: αSNAP with a C-terminal His6-linker (…) (natural protein, Bos Taurus, UniProt P81125 1-295, looked up)
chain: B1 chain
notes: Used in all liposome co-floatation assays so that the syntaxin-1 and αSNAP bands separate on the gels; also called αSNAP containing a linker at the C terminus; source: E. coli BL21(DE3), purified as the unmodified construct
